Key:
[1] = target: Recombinant human NGF (Sigma) (human, UniProt P01138 122-241, limits assumed); experiment: cell-based or functional assay
[2] = target: Recombinant mouse NGF (R&D Systems) (mouse, UniProt P01139 122-241); experiment: cell-based or functional assay
Recombinant mouse NGF (R&D Systems), sequence (P01139 122-241 limits assumed): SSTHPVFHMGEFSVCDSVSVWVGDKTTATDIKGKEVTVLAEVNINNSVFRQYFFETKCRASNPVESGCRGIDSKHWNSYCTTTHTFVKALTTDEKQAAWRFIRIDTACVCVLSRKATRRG

Recombinant human NGF (Sigma), sequence (P01138 122-241 limits assumed): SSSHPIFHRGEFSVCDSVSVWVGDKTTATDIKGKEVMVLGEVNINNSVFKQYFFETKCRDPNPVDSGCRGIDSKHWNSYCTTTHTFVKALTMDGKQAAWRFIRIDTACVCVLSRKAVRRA

B1: MEDI-578 IgG1 TM YTE (antibody, V domains shown)
VH: QVQLVQSGAEVKKPGSSVKVSCKASGGTFSTYGISWVRQAPGQGLEWMGGIIPIFDTGNSAQSFQGRVTITADESTSTAYMELSSLRSEDTAVYYCARSSRIYDLNPSLTAYYDMDVWGQGTMVTVSS
VL: QSVLTQPPSVSAAPGQKVTISCSGSSSNIGNNYVSWYQQLPGTAPKLLIYDNNKRPSGIPDRFSGSKSGTSATLGITGLQTGDEADYYCGTWDSSLSAWVFGGGTKLTVL
IC50 (read off the curve), human NGF-induced TF-1 proliferation [1]: ~700 pM
IC50 (read off the curve), murine NGF-induced TF-1 proliferation [2]: ~300 pM

— patent US20210009671A1 (AstraZeneca / MedImmune, published 2021)
